Experimental data taken from paper PMC9876794 (2022).

Molecular target: SARS-CoV-2 spike RBD (WT) (Severe acute respiratory syndrome …, UniProt P0DTC2)
Test: BLI

B1: B46 (antibody, V domains shown)
VH: QVQLQQPGAELVKPGASVKVSCKASGYTFTSYWMHWVKQRPGQGLEWIGRIHPSDSDTNYNQNFKGKATLTVDKSSSTAYMQLSSLTSEDSAVYYCALDGYYGIWWGQGTLVTVSA
VL: DIVMTQSQKFMSTSVGDRVSVTCKASQNVGTNVAWYQQKPGQSPKALIYSASYRYSGVPDRFTGSGSGTDFTLTISNVQSEDLAEYFCQQCNSYPLTFGGGTKLEIK
- Kd: 282 nM
